Reference: article PMC9941103
Where “and” joins values, the source holds several entries; their conditions need not be identical. Equal entries are not always repeated.

What was measured:
[1] = target: SNARE:Complexin-1 complex (UniProt P60881); assay: native MS; equimolar Complexin-1 added to the pre-assembled SNARE complexes
[2] = target: fully assembled ternary SNARE complex (SNAP25:Syntaxin-1A:Synaptobrevin-2, 3Q:1R) (UniProt P60881); assay: native MS; Synaptobrevin-2, SNAP25 and Syntaxin-1A mixed 1:1:1, incubated overnight
[3] = target: fully assembled ternary SNARE complex (SNAP25:Syntaxin-1A:Synaptobrevin-2, 3Q:1R) (UniProt P60881); assay: native MS; 1.2 molar excess of Synaptobrevin-2 added to pre-assembled binary SNAP25:Syntaxin-1A complexes (1:2 mix), analysed directly
[4] = target: fully assembled ternary SNARE complex (SNAP25:Syntaxin-1A:Synaptobrevin-2, 3Q:1R) (UniProt P60881); assay: native MS; equimolar Syntaxin-1A added to the pre-assembled 2:1 SNAP25:Synaptobrevin-2 complex
[5] = target: pre-assembled binary SNAP25:Syntaxin-1A complex (1:2, 4Q:0R) (UniProt P60881); assay: native MS; SNAP25 and Syntaxin-1A mixed 1:2; 200 mM ammonium acetate

Substance: SNARE:Complexin-1 complex (from UniProt P60881 1-206; P32851 1-262; P63045 1-96; P63041 1-134)
- stoichiometry N [1]: 2

Substance: fully assembled ternary SNARE complex (SNAP25:Syntaxin-1A:Synaptobrevin-2, 3Q:1R) (from UniProt P60881 1-206; P32851 1-262; P63045 1-96)
- stoichiometry N [2]: 2 and 3
- stoichiometry N [3]: 2 and 3
- stoichiometry N [4]: 2 and 3 and 4

Substance: pre-assembled binary SNAP25:Syntaxin-1A complex (1:2, 4Q:0R) (from UniProt P60881 1-206; P32851 1-262)
- stoichiometry N [5]: 2
